Measured values published in patent publication US20240280570A1.
Where two headings read alike, the source gives them in different places.

Assays:
[1] = molecular target: SARS-CoV-2 S1 (Sino Biological 40591-V08B1); Spike Protein S1 subunit residues 1 - 685(R) His tagged (SARS-CoV-2) (UniProt P0DTC2)
[2] = molecular target: SARS-CoV-2 S1 (Sino Biological 40591-V08B1); Spike Protein S1 subunit residues 1 - 685(R) His tagged (SARS-CoV-2) (UniProt P0DTC2); assay: OECT sensor, PEDOT:PSS channel, nanobody on gate, target in buffer
[3] = molecular target: SARS-CoV-2 S1 (Sino Biological 40591-V08B1); Spike Protein S1 subunit residues 1 - 685(R) His tagged (SARS-CoV-2) (UniProt P0DTC2); remark: listed apart in the source
[4] = molecular target: SARS-CoV-2 S1 (Sino Biological 40591-V08B1); Spike Protein S1 subunit residues 1 - 685(R) His tagged (SARS-CoV-2) (UniProt P0DTC2); remark: listed apart in the source
[5] = molecular target: MCA-SpyTag peptide; assay: QCM-D, SpyTag peptide on HDT-coated gold, without BSA (data not shown)
[6] = molecular target: SARS-CoV-2 S1 (Sino Biological 40591-V08B1); Spike Protein S1 subunit residues 1 - 685(R) His tagged (SARS-CoV-2) (UniProt P0DTC2); remark: listed apart in the source
[7] = molecular target: MCA-SpyTag peptide
[8] = molecular target: SARS-CoV-2 S1 (Sino Biological 40591-V08B1); Spike Protein S1 subunit residues 1 - 685(R) His tagged (SARS-CoV-2) (UniProt P0DTC2); assay: method not stated at this place (SPR of viral targets is described in paragraph 219)
[9] = molecular target: SARS-CoV-1 RBD (Sino Biological 40150-V08B2); Spike Receptor Binding Domain residues R306 - F527 His tagged (SARS-CoV-1) (UniProt P59594); assay: OECT sensor, PEDOT:PSS channel, nanobody on gate, target in buffer
[10] = molecular target: SARS-CoV-1 RBD (Sino Biological 40150-V08B2); Spike Receptor Binding Domain residues R306 - F527 His tagged (SARS-CoV-1) (UniProt P59594)

Substance	LOD [1] [pM]	LOD [2] [pM]	normalized response (NR) [3] [%]	LOD [4] [pM]	mass density bound (QCM-D) [5] [ng cm-2]	molecules bound per cm2 (QCM-D) (nanobodies per cm^2) [5]	LOD [6] [pM]	mass density bound (QCM-D) [7] [ng cm-2]	Kd [8] [µM]	LOD [9] [pM]	LOD [10] [pM]
VHH72-8 aa-spyCatcher-3C cleavage site-His8	0.019	0.00028	30	1.2e-09	407	8.4e+12	1.8e-08	430	0.023	–	–
VHH72-8 aa-spyCatcher-3C cleavage site-His8 (VHH; other documents disagree on this pair)	–	–	–	–	–	–	–	–	–	0.0015	1.6e-05
